# Reference: IntAct's records for PubMed 17053789
# B1: Protection of telomeres protein 1 (Mus musculus), Q91WC1 (parent)
# chain: MSLVSTAPYTYTPLNLLKEGTIANVYGVVKFFKPPYVSKGTDYCSVVTIVDQTNVKLTCMLFSGNYEALPIIYKVGDIVRFHRLKIQVYKNELQGINCSGFASLTFEGTVGMPVTARTSSKVFSFTPQDQKMVEALRVWASKHISASSTLVQLCDAQPMQYYDLTCQLLGKAQVDSTAFLLKVWDGTQTVLPSWRVSTQDLTFEGDLSHIERLQSLVVDILVYDNHVQVARSIEVGCFLRLYSLHTKLQPGNSETSSSESLRLEFHLHGGTSYGRGIRVLPDTSPCVDQLKKALEGANLPVTETSTGICQSENGDSSALSNSGSGAVSPYEEERCQQVSATILTNHQHLEKTPLCAILTQKAPQQYRVRAKLRSYLPRRLSQSVKLLCPKCHSVQEVPHGDSLDKILQDAATEAPDIKLKATSLYYSKVWTTEDQGGRQVAVHFVKNNGILPASSECLILIEGGRLCEVSKLSSKFHSVMPVRSGPESLELLTLSAPFLIQGKVHHYGCKQCSSLKPIQNLNSRFHKGPWTPSSVAEALGVVPLQYVFVMVFTLDDGTGVLEAYLKDSEHFFKIPASEVLTDDDLQRSLETIMDMICPPGIKVDAYPWLECLLKSYNVTIGTERRICYQIFDTTVAENVV
# partner: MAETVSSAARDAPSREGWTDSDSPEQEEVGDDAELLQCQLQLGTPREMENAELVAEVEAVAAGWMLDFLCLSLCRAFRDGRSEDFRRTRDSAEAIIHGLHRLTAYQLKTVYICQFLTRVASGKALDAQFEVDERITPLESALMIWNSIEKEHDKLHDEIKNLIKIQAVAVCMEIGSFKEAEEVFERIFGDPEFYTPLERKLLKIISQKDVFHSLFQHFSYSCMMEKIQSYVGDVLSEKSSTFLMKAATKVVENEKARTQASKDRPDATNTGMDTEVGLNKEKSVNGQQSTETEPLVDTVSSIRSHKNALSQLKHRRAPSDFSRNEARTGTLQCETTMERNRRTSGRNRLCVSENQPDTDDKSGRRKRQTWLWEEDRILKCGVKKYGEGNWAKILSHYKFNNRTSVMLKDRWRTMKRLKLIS
# Variants of: B1
# Details: with terf1_mouse Terf1, P70371
row,effect of a mutation on the interaction,Variant
1,disrupting interaction,Y223A
